In patent US20240024479A1, “NK CELLS OR T CELLS EXPRESSING CHIMERIC HEMATOPOIETIC GROWTH FACTOR RECEPTORS AND METHODS OF USE” (The United States of America, as represented by the …, priority 2020, published 2024):

What was measured:
[1] = molecular target: human thrombopoietin receptor (c-MPL) expressed on transduced NK or T cells (human) (UniProt P40238); test: cell-based or functional assay
[2] = test system: c-MPL transduced NK cells; test: Proliferation of c-MPL-expressing human NK cells with thrombopoietin mimetics; assay type: cell-based; details: 4-5 days culture
Procedure: FIGS. 16A-16C show proliferation of human NK cells transduced to express GFP and c-MPL cultured for 4-5 days with the indicated concentrations of thrombopoietin (FIG. 16A), romiplostim (FIG. 16B), or eltrombopag (FIG. 16C). […] Mean and SEM of results from 3 blood donors are shown.
NK cells from PBMC from three blood donors were stimulated and transduced to express GFP and c-MPL, then were cultured for 4-5 days with thrombopoietin, romiplostim, or eltrombopag.

[3] = test system: NK cells transduced to express MPL or MPL-IL2RB chimeric receptors; test: Phospho-STAT5 and phospho-S6 signaling in transduced NK cells; assay type: cell-based, human
K562 target cells = test: Degranulation and cytokine production of NK cells expressing MPL-IL2RB or MPL with K562 targets; assay type: cell-based, human; details: for degranulation of cytotoxic granules in response to K562 target cells: 4-day exposure to eltrombopag or romiplostim; for production of IFN-gamma and TNF: culture with eltrombopag or romiplostim and exposure to K562 targets
Procedure: To examine degranulation, cells were washed after two hours and stained with anti-CD107a (H4A3) (BioLegend). To assay cytokine production, GolgiPlug and GolgiStop (BD Biosciences) were added at manufacturer's recommended concentrations within the first hour of co-culture with K562. After 4 hours, cells were washed and stained for cell surface markers, then stained intracellularly with mAb recognizing TNF-α (Mab 11) and IFN-γ (B27) (BD Biosciences).
(§1) In vitro cell culture experiments with human NK cells expressing MPL-IL2RB: Approximately 2-4 days after transduction, NK cells were placed in culture with varied concentrations of eltrombopag (Selleckchem, TX, USA) or romiplostim (Amgen, CA, USA); where concentrations are not indicated, 0.33 ug/mL eltrombopag or 1.5 ng/mL romiplostim were used. Medium and drugs were refreshed by addition of new medium or by changing half the culture volumes every 2-4 days. Numbers of GFP^+ cells were quantitated after 4-6 days (or indicated durations) using a BD Fortessa flow cytometer (BD Biosciences, NJ, USA) and compared with initial numbers to determine the fold expansion.

primary human NK cells [4] = test: Chimeric MPL-IL2RB constructs (lentiviral) in primary human NK cells, cell numbers with MPL ligands; assay type: cell-based; details: after 4 days; medium lacking cytokines; lentiviral vectors
Excerpt: (§2) Lentiviral and retroviral vectors expressing MPL-IL2RB and other chimeric MPL receptors: Lentiviral vectors were created by Vectorbuilder (IL, USA) by insertion of DNA sequences encoding EGFP and chimeric molecules including extracellular, transmembrane, and in some cases, proximal intracellular regions of human MPL (NM_005373.3) fused with partial intracellular domains from human IL2RB (NM_000878.5) using the linkages as shown in FIG. 17. Certain of these chimeric receptor sequences were also inserted into a gamma retroviral vector backbone also encoding EGFP or firefly luciferase. Analogous vectors encoding unmodified MPL (NM_005373.3) were used for comparison. […]
as §1, with “Medium and drugs were refreshed by addition of new medium or by changing half the culture volumes every 2-4 days.” left out

Human NK cells = test: Matrix of IL-2 and eltrombopag concentrations, NK cell numbers after 6 days; assay type: cell-based; details: for proliferation in the presence of eltrombopag at high IL-2 concentrations compared with IL-2 alone: 6 days
Procedure: as §1

primary human NK cells [5] = test: Time course of survival/proliferation of NK cells expressing MPL-IL2RB (retroviral); assay type: cell-based; details: varied concentrations of eltrombopag, romiplostim or thrombopoietin; retroviral vectors
Excerpt: as §2
as §1, with “Medium and drugs were refreshed by addition of new medium or by changing half the culture volumes every 2-4 days.” left out

recombinant human thrombopoietin (rhTPO) (from UniProt P40225 22-353) (ligand)
Bcl-2 RMFI in c-MPL+ NK-92 cells with TPO [1]: 64.5 RMFI
Bcl-xL RMFI in c-MPL+ NK-92 cells with TPO [1]: 4.52 RMFI
CD107a degranulation of GFP+ MPL+ primary NK cells against K562, TPO plus 25 U/ml IL-2 [1]: 83%
GFP fold-expansion of c-MPL transduced primary T cells, TPO alone, day 6 [1]: 5.96 fold
average percentage of GFP+ MPL+ cells among recovered human cells in blood and spleen of TPO-treated NSG mice (about 10% injected) [1]: 15%
average percentage of GFP+ MPL+ cells among recovered human cells in liver and lung of TPO-treated NSG mice (about 10% injected) [1]: 20%
expansion of c-MPL+ activated T cells, TPO plus LD IL-2, day 6 [1]: 6 to 11.4 fold
fold change of GFP+ c-MPL+ primary NK cells, TPO plus 10 U/ml IL-2, day 6 [1]: 24.3 fold
fold change of GFP+ c-MPL+ primary NK cells, TPO plus 25 U/ml IL-2, day 6 [1]: 34.1 fold
fold expansion of c-MPL+ NK-92 cells with TPO alone, day 8 [1]: 7 fold
fold expansion of c-MPL+ NK-92 cells, TPO plus 1 U/ml IL-2, day 8 [1]: 23.2 fold
mean percentage of dead Raji cells, c-MPL+ NK-92 cells exposed to TPO plus LD IL-2, E:T 1:1 [1]: 84%
mean percentage of dead Raji cells, c-MPL+ NK-92 cells exposed to TPO plus LD IL-2, E:T 10:1 [1]: 85%
pS6 expression (RMFI) in c-MPL+ NK-92 cells, TPO plus LD IL-2 [1]: 11.8 RMFI
percentage of GFP+ MPL+ cells in parallel in vitro cultures of the mixed cells with only TPO [1]: 31%

romiplostim
proliferation of c-MPL transduced NK cells [2]: induce proliferation
phosphorylated ribosomal protein S6 responses (mTOR activation) ([3]; NK cells expressing either MPL-IL2RB or MPL): induced
phosphorylated STAT5 ([3]; eltrombopag 0.33 μg/ml or romiplostim 1.5 ng/mL, compared with 5 U/mL IL-2): shorter dilution pSTAT5 response

B1: MPL: unmodified human MPL (NM_005373.3), SEQ ID NO: 1, expressed in NK cells for comparison (protein, listed as Homo sapiens)
chain: MPSWALFMVTSCLLLAPQNLAQVSSQDVSLLASDSEPLKCFSRTFEDLTCFWDEEEAAPSGTYQLLYAYPREKPRACPLSSQSMPHFGTRYVCQFPDQEEVRLFFPLHLWVKNVFLNQTRTQRVLFVDSVGLPAPPSIIKAMGGSQPGELQISWEEPAPEISDFLRYELRYGPRDPKNSTGPTVIQLIATETCCPALQRPHSASALDQSPCAQPTMPWQDGPKQTSPSREASALTAEGGSCLISGLQPGNSYWLQLRSEPDGISLGGSWGSWSLPVTVDLPGDAVALGLQCFTLDLKNVTCQWQQQDHASSQGFFYHSRARCCPRDRYPIWENCEEEEKTNPGLQTPQFSRCHFKSRNDSIIHILVEVTTAPGTVHSYLGSPFWIHQAVRLPTPNLHWREISSGHLELEWQHPSSWAAQETCYQLRYTGEGHQDWKVLEPPLGARGGTLELRPRSRYRLQLRARLNGPTYQGPWSSWSDPTRVETATETAWISLVTALHLVLGLSAVLGLLLLRWQFPAHYRRLRHALWPSLPDLHRVLGQYLRDTAALSPPKATVSDTCEEVEPSLLEILPKSSERTPLPLCSSQAQMDYRRLQPSCLGTMPLSVCPPMAESGSCCTTHIANHSYLPLSYWQQP
degranulation of cytotoxic granules in response to K562 target cells (K562 target cells): augmented degranulation
production of IFN-gamma and TNF (K562 target cells): augmented production
NK cell numbers in presence of eltrombopag or romiplostim (primary human NK cells [4]): greater cell numbers
proliferation in the presence of eltrombopag at high IL-2 concentrations compared with IL-2 alone (Human NK cells): deficit in proliferation

B2: MPL-IL2RB: chimeric receptor, SEQ ID NO: 8 (amino acids 1-582, c-MPL; amino acids 583-801, IL2RB) (protein)
chain: MPSWALFMVTSCLLLAPQNLAQVSSQDVSLLASDSEPLKCFSRTFEDLTCFWDEEEAAPSGTYQLLYAYPREKPRACPLSSQSMPHFGTRYVCQFPDQEEVRLFFPLHLWVKNVFLNQTRTQRVLFVDSVGLPAPPSIIKAMGGSQPGELQISWEEPAPEISDFLRYELRYGPRDPKNSTGPTVIQLIATETCCPALQRPHSASALDQSPCAQPTMPWQDGPKQTSPSREASALTAEGGSCLISGLQPGNSYWLQLRSEPDGISLGGSWGSWSLPVTVDLPGDAVALGLQCFTLDLKNVTCQWQQQDHASSQGFFYHSRARCCPRDRYPIWENCEEEEKTNPGLQTPQFSRCHFKSRNDSIIHILVEVTTAPGTVHSYLGSPFWIHQAVRLPTPNLHWREISSGHLELEWQHPSSWAAQETCYQLRYTGEGHQDWKVLEPPLGARGGTLELRPRSRYRLQLRARLNGPTYQGPWSSWSDPTRVETATETAWISLVTALHLVLGLSAVLGLLLLRWQFPAHYRRLRHALWPSLPDLHRVLGQYLRDTAALSPPKATVSDTCEEVEPSLLEILPKSSERTPLPLVTQLLLQQDKVPEPASLSSNHSLTSCFTNQGYFFFHLPDALEIEACQVYFTYDPYSEEDPDEGVAGAPTGSSPQPLQPLSGEDDAYCTFPSRDDLLLFSPSLLGGPSPPSTAPGGSGAGEERMPPSLQERVPRDWDPQPLGPPTPGVPDLVDFQPPPELVLREAGEEVPDAGPREGVSFPWSRPPGQGEFRALNARLPLNTDAYLSLQELQGQDPTHLV
degranulation of cytotoxic granules in response to K562 target cells (K562 target cells): augmented degranulation
production of IFN-gamma and TNF (K562 target cells): augmented production
fold change in cell numbers (primary human NK cells [5]): greater fold change in cell numbers
NK cell numbers in presence of eltrombopag or romiplostim (primary human NK cells [4]): greater cell numbers than MPL-expressing NK cells
proliferation in the presence of eltrombopag at high IL-2 concentrations compared with IL-2 alone (Human NK cells): comparable numbers
NK cell numbers after 6 days (Human NK cells; low concentrations of IL-2, with eltrombopag): greater numbers
intracellular signals (pSTAT5, pS6) induced via receptor ([3]; compared with MPL): comparable to those triggered by MPL
